The stoichiometry N is the number of molecules, sites or subunits per partner or assembly.

No end group written: not given here.

The text below walks through data of PMC7801617, “Cancer associated talin point mutations disorganise cell adhesion and migration” (Scientific Reports, 2021).

The target of series [1] is T1, talin-1 R7–R8 fragment, wildtype (residues 1355–1652) (mouse, UniProt P26039 1355-1652).
T1 construct: talin-1, mouse, R7–R8 domains, residues 1355–1652, made from full-length mouse talin-1 as template; also called R7–R8 WT; Wildtype R7–R8; source: E. coli BL21 (DE3), purified (HisTrap HP, HiTrap Q HP anion exchange)
The series can be described thus: fluorescence polarisation; R7–R8 protein serially diluted from 60 µM with KANK1 (30–68) peptide at 1 µM, and from 75 µM with RIAM (4–30) peptide at 1 µM; 20 °C; CLARIOstar plate reader; one-site total binding equation. To be noted: both partners purified. (In general: Polarisation of emitted light reports the rotation of a fluorescent probe.)

Series [2] has as its target T2, talin-1 R7–R8 fragment (residues 1355–1652) with mutation R1368W (mouse, UniProt P26039 1355-1652, R1368W).
T2 construct: talin-1, mouse, R7–R8 domains, residues 1355–1652, with R1368W; The mutation is a somatic mutation of human cancers (COSMIC; also in the 1000 Genomes database), put into the mouse talin-1 fragment by site-directed mutagenesis; also called R7–R8 R1368W; source: E. coli BL21 (DE3), purified (HisTrap HP, HiTrap Q HP anion exchange)
Described as above. The settings on record: both partners purified.

In series [3] the target is T3, talin-1 R7–R8 fragment (residues 1355–1652) with mutation Y1389C (mouse, UniProt P26039 1355-1652, Y1389C).
T3 construct: talin-1, mouse, R7–R8 domains, residues 1355–1652, with Y1389C; The mutation is a somatic mutation of human cancers (COSMIC), put into the mouse talin-1 fragment by site-directed mutagenesis; also called R7–R8 Y1389C; source: E. coli BL21 (DE3), purified (HisTrap HP, HiTrap Q HP anion exchange)
The description is as above. The settings on record: both partners purified.

Series [4] deals with the molecule itself. The series can be described thus: SEC-MALS; 100 μM protein, room temperature, Superdex 75 column; Viscotek SEC–MALS 9 and RI detector; dimer or monomer.
Series [5] addresses T1, talin-1 R7–R8 fragment, wildtype …. The series can be described thus: SEC; Vd1 and talin R7–R8 incubated at a 2:1 ratio at a concentration of 100 µM, analysed at room temperature; elution fractions on SDS-PAGE. The settings on record: both partners purified. (SEC sorts molecules by how far they enter the pores of the column.)
Series [6] has as its target T2, talin-1 R7–R8 fragment (residues …). The description is as above. To be noted: both partners purified.
The target in series [7] is T3, talin-1 R7–R8 fragment (residues …). The series is described as above. The settings on record: both partners purified.

T1 sequence (P26039 1355-1652): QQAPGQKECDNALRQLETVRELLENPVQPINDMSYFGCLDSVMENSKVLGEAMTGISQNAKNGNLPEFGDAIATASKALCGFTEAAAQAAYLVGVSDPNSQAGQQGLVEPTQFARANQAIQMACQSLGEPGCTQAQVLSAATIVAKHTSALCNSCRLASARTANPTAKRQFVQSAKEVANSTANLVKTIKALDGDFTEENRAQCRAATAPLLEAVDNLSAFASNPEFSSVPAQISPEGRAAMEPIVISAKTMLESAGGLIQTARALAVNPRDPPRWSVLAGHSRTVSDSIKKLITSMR
T3 sequence (P26039 1355-1652 Y1389C): as the sequence (P26039 1355-1652) above, with Y35C counted along it
T2 sequence (P26039 1355-1652 R1368W): as the sequence (P26039 1355-1652) above, with R14W counted along it

B1: RIAM (4–30) peptide (peptide)
peptide: SEDIDQMFSTLLGEMDLLTQSLGVDTC
modifications: also: BODIPY or Fluorescein dye coupled via C-terminal Cys
notes: RIAM, mouse, printed as residues 4–30; added C-terminal cysteine for coupling of the dye; also called RIAM peptide; LD-motif of RIAM; source: synthetic peptide (GLBiochem, China)
Take B1: the binding result in series [1], in series [2] and in series [3] was “binds” throughout.

B2: talin-1 R13–DD fragment, wildtype (residues 2300–2541) (domain or fragment, mouse, UniProt P26039 2300-2541, looked up)
chain: DPTVIAENELLGAAAAIEAAAKKLEQLKPRAKPKEADESLNFEEQILEAAKSIAAATSALVKAASAAQRELVAQGKVGAIPANALDDGQWSQGLISAARMVAAATNNLCEAANAAVQGHASQEKLISSAKQVAASTAQLLVACKVKADQDSEAMKRLQAAGNAVKRASDNLVKAAQKAAAFEDQENETVVVKEKMVGGIAQIIAAQEEMLRKERELEEARKKLAQIRQQQYKFLPSELRDEH
notes: talin-1, mouse, R13 and dimerisation domain (DD), residues 2300–2541; Constitutive dimer by SEC–MALS; also called R13–DD WT; Talin R13–DD wildtype; source: E. coli BL21 (DE3), purified (HisTrap HP, HiTrap Q HP anion exchange)
For B2, the “stoichiometry N” value in series [4] was 2.

B3: vinculin Vd1 domain (residues 1–258) (domain or fragment, UniProt P12003 1-258, looked up)
chain: MPVFHTRTIESILEPVAQQISHLVIMHEEGEVDGKAIPDLTAPVSAVQAAVSNLVRVGKETVQTTEDQILKRDMPPAFIKVENACTKLVRAAQMLQADPYSVPARDYLIDGSRGILSGTSDLLLTFDEAEVRKIIRVCKGILEYLTVAEVVETMEDLVTYTKNLGPGMTKMAKMIDERQQELTHQEHRVMLVNSMNTVKELLPVLISAMKIFVTTKNTKSQGIEEALKNRNFTVEKMSAEINEIIRVLQLTSWDEDAW
notes: vinculin, Vd1 domain, residues 1–258
In the case of B3, the “stoichiometry N” value was 1 in series [5], 1 in series [6] and 2 in series [7].
